In paper PMC6704068:

Biological target: Saccharomyces cerevisiae alcohol dehydrogenase (Saccharomyces cerevisiae) (UniProt P00330)
Test: SEC + native MS

stoichiometry N: 4
Substance: Saccharomyces cerevisiae alcohol dehydrogenase (from UniProt P00330 1-348) (enzyme)
